# According to the Immune Epitope Database (IEDB):
# Assays:
# HLA-B*40:01 [1] = test: IEDB peptide-MHC binding, purified MHC/direct/fluorescence; filed as Kd, often an IC50 or EC50 that approximates it; ≥ and ≤ were set here for values at or beyond the usual limits of such assays; conditions: source organism: Camelpox virus M-96
# HLA-B*08:01 [2] = test: as above; conditions: source organism: Variola virus
# HLA-B*48:01 [3] = test: as above; conditions: source organism: Camelpox virus M-96
# HLA-A*31:01 [4] = test: as above; conditions: source organism: Camelpox virus M-96
# HLA-B*44:02 = test: as above; conditions: source organism: Camelpox virus M-96
# HLA-A*26:01 = test: as above; conditions: source organism: Variola virus
# HLA-B*57:01 [5] = test: as above; conditions: source organism: Camelpox virus M-96
# HLA-A*11:01 [6] = test: as above; conditions: source organism: Camelpox virus M-96
# HLA-B*27:05 [7] = test: as above; conditions: source organism: Camelpox virus M-96
# HLA-A*01:01 [8] = test: as above; conditions: source organism: Camelpox virus M-96
# HLA-A*69:01 [9] = test: as above
# HLA-B*08:03 [10] = test: as above; conditions: source organism: Variola virus
# HLA-B*15:17 [11] = test: as above; conditions: source organism: Camelpox virus M-96
# HLA-B*18:01 [12] = test: as above; conditions: source organism: Camelpox virus M-96
# HLA-B*58:01 [13] = test: as above; conditions: source organism: Camelpox virus M-96
# HLA-A*26:02 [14] = test: as above; conditions: source organism: Variola virus
# HLA-B*08:02 [15] = test: as above; conditions: source organism: Variola virus
# HLA-B*07:02 [16] = test: as above; conditions: source organism: Camelpox virus M-96
# HLA-B*39:01 = test: IEDB peptide-MHC binding, purified MHC/competitive/fluorescence; filed as Kd, often an IC50 or EC50 that approximates it; ≥ and ≤ were set here for values at or beyond the usual limits of such assays; conditions: source organism: Vaccinia virus WR
# HLA-A*68:02 = test: as above
# HLA-B*15:09 = test: as above; conditions: source organism: Vaccinia virus WR
# HLA-A*02:01 [17] = test: IEDB peptide-MHC binding, purified MHC/direct/fluorescence; filed as Kd, often an IC50 or EC50 that approximates it; ≥ and ≤ were set here for values at or beyond the usual limits of such assays; conditions: source organism: Yersinia enterocolitica
# HLA-A*02:16 = test: as above; conditions: source organism: Yersinia enterocolitica subsp. enterocolitica 8081
# HLA-A*02:11 = test: as above; conditions: source organism: Yersinia enterocolitica subsp. enterocolitica 8081
# HLA-A*02:12 = test: as above; conditions: source organism: Yersinia enterocolitica subsp. enterocolitica 8081
# HLA-A*02:50 = test: IEDB peptide-MHC binding, purified MHC/competitive/fluorescence; filed as Kd, often an IC50 or EC50 that approximates it; ≥ and ≤ were set here for values at or beyond the usual limits of such assays; conditions: source organism: Yersinia bercovieri ATCC 43970
# HLA-A*02:01 [18] = test: as above; conditions: source organism: Mycobacterium leprae
# HLA-B*40:01 [19] = test: as above; conditions: source organism: Mycobacterium leprae
# HLA-B*08:01 [20] = test: as above; conditions: source organism: Mycobacterium leprae
# HLA-B*48:01 [21] = test: as above; conditions: source organism: Mycobacterium leprae
# HLA-A*02:03 = test: as above; conditions: source organism: Mycobacterium leprae
# HLA-A*31:01 [22] = test: as above; conditions: source organism: Mycobacterium leprae
# HLA-B*57:01 [23] = test: as above; conditions: source organism: Mycobacterium leprae
# HLA-A*11:01 [24] = test: as above; conditions: source organism: Mycobacterium leprae
# HLA-A*26:03 = test: as above; conditions: source organism: Mycobacterium leprae
# HLA-B*27:05 [25] = test: as above; conditions: source organism: Mycobacterium leprae
# HLA-B*35:01 = test: as above; conditions: source organism: Mycobacterium leprae
# HLA-A*01:01 [26] = test: as above; conditions: source organism: Mycobacterium leprae
# HLA-B*46:01 = test: as above; conditions: source organism: Mycobacterium leprae
# HLA-A*69:01 [27] = test: as above; conditions: source organism: Mycobacterium leprae
# HLA-B*08:03 [28] = test: as above; conditions: source organism: Mycobacterium leprae
# HLA-B*15:01 = test: as above; conditions: source organism: Mycobacterium leprae
# HLA-B*15:17 [29] = test: as above; conditions: source organism: Mycobacterium leprae
# HLA-B*18:01 [30] = test: as above; conditions: source organism: Mycobacterium leprae
# HLA-A*02:06 = test: as above; conditions: source organism: Mycobacterium leprae
# HLA-A*30:01 = test: as above; conditions: source organism: Mycobacterium leprae
# HLA-B*58:01 [31] = test: as above; conditions: source organism: Mycobacterium leprae
# HLA-A*26:02 [32] = test: as above; conditions: source organism: Mycobacterium leprae
# HLA-B*08:02 [33] = test: as above; conditions: source organism: Mycobacterium leprae
# HLA-B*07:02 [34] = test: as above; conditions: source organism: Mycobacterium leprae
sequence,measurement,setting,value
FENDIDEIL,Kd,HLA-B*40:01 [1],0.0053 µM
same,Kd,HLA-B*08:01 [2],≥ 20 µM
same,Kd,HLA-B*48:01 [3],1.2 µM
same,Kd,HLA-A*31:01 [4],≥ 20 µM
same,Kd,HLA-B*44:02,≥ 20 µM
same,Kd,HLA-A*26:01,≥ 20 µM
same,Kd,HLA-B*57:01 [5],≥ 20 µM
same,Kd,HLA-A*11:01 [6],≥ 20 µM
same,Kd,HLA-B*27:05 [7],≥ 20 µM
same,Kd,HLA-A*01:01 [8],≥ 20 µM
same,Kd,HLA-A*69:01 [9]; source organism: Camelpox virus M-96,≥ 20 µM
same,Kd,HLA-B*08:03 [10],≥ 20 µM
same,Kd,HLA-B*15:17 [11],≥ 20 µM
same,Kd,HLA-B*18:01 [12],0.122 µM
same,Kd,HLA-B*58:01 [13],≥ 20 µM
same,Kd,HLA-A*26:02 [14],≥ 20 µM
same,Kd,HLA-B*08:02 [15],≥ 20 µM
same,Kd,HLA-B*07:02 [16],≥ 20 µM
same,Kd,HLA-B*39:01,≥ 20 µM
same,Kd,HLA-A*68:02; source organism: Vaccinia virus WR,2.14 µM
same,Kd,HLA-B*15:09,≥ 20 µM
TLLCGAATA,Kd,HLA-A*02:01 [17],0.196 µM
same,Kd,HLA-A*02:16,0.057 µM
same,Kd,HLA-A*02:11,0.042 µM
same,Kd,HLA-A*69:01 [9]; source organism: Yersinia enterocolitica,0.394 µM
same,Kd,HLA-A*02:12,0.021 µM
same,Kd,HLA-A*02:50,0.012 µM
TVGYMYIMK,Kd,HLA-A*68:02; source organism: Mycobacterium leprae,≥ 20 µM
same,Kd,HLA-A*02:01 [18],≥ 20 µM
same,Kd,HLA-B*40:01 [19],≥ 20 µM
same,Kd,HLA-B*08:01 [20],≥ 20 µM
same,Kd,HLA-B*48:01 [21],≥ 20 µM
same,Kd,HLA-A*02:03,≥ 20 µM
same,Kd,HLA-A*31:01 [22],≥ 5 µM
same,Kd,HLA-B*57:01 [23],≥ 20 µM
same,Kd,HLA-A*11:01 [24],0.0049 µM
same,Kd,HLA-A*26:03,≥ 20 µM
same,Kd,HLA-B*27:05 [25],≥ 20 µM
same,Kd,HLA-B*35:01,≥ 20 µM
same,Kd,HLA-A*01:01 [26],≥ 20 µM
same,Kd,HLA-B*46:01,≥ 20 µM
same,Kd,HLA-A*69:01 [27],≥ 20 µM
same,Kd,HLA-B*08:03 [28],≥ 20 µM
same,Kd,HLA-B*15:01,≥ 20 µM
same,Kd,HLA-B*15:17 [29],≥ 20 µM
same,Kd,HLA-B*18:01 [30],≥ 20 µM
same,Kd,HLA-A*02:06,≥ 20 µM
same,Kd,HLA-A*30:01,0.0488 µM
same,Kd,HLA-B*58:01 [31],≥ 20 µM
same,Kd,HLA-A*26:02 [32],≥ 20 µM
same,Kd,HLA-B*08:02 [33],≥ 20 µM
same,Kd,HLA-B*07:02 [34],≥ 20 µM
